# Assay results published in patent US10973880B2, “Compositions and methods for treating pulmonary hypertension” (Acceleron Pharma Inc., priority 2016, dated 2021).
# T1: BMP10 (Homo sapiens, UniProt O95393)
# T1 sequence (O95393 317-424): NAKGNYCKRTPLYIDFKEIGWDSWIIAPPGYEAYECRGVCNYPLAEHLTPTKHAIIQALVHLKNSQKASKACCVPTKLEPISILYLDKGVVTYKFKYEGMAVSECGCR
# T2: activin B (Homo sapiens, UniProt P09529)
# T2 sequence (P09529 293-407): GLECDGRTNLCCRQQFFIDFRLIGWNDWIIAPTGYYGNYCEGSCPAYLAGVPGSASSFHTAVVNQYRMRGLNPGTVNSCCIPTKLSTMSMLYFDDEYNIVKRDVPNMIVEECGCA
# T3: GDF3 (Homo sapiens, UniProt Q9NR23)
# T3 sequence (Q9NR23 251-364): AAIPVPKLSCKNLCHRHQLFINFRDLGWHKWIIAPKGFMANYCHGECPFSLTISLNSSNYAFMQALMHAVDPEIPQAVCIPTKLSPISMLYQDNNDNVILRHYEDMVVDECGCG
# T4: BMP6 (Homo sapiens, UniProt P22004)
# T4 sequence (P22004 375-513): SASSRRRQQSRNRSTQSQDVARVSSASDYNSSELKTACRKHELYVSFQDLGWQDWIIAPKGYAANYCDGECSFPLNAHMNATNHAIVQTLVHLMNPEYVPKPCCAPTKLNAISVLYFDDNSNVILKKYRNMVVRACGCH
# T5: BMP9 (Homo sapiens, UniProt Q9UK05)
# T5 sequence (Q9UK05 320-429): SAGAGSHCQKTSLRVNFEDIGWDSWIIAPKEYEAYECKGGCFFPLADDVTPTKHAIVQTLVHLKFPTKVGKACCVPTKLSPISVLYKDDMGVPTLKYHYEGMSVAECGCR
# T6: activin A (Homo sapiens, UniProt P08476)
# T6 sequence (P08476 311-426): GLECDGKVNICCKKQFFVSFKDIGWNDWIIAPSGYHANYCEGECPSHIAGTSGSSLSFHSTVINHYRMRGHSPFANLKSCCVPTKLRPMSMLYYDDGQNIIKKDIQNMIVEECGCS
# T7: GDF8 (Homo sapiens, UniProt O14793)
# T7 sequence (O14793 267-375): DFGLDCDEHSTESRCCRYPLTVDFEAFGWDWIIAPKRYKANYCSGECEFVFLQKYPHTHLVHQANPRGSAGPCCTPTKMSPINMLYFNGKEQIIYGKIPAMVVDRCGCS
# T8: GDF11 (Homo sapiens, UniProt O95390)
# T8 sequence (O95390 299-407): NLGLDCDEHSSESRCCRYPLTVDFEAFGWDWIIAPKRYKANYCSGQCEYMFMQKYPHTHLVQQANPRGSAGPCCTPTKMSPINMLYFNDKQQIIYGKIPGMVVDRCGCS
# B1: ALK4-Fc:ActRIIB-Fc heterodimer: heteromeric complex of extracellular domains of human ActRIIB and human ALK4, each separately fused to an Fc domain with a linker (protein)
# chain 1: SGPRGVQALLCACTSCLQANYTCETDGACMVSIFNLDGMEHHVRTCIPKVELVPAGKPFYCLSSEDLRNTHCCYTDYCNRIDLRVPSGHLKEPEHPSMWGPVE
# chain 2: GRGEAETRECIYYNANWELERTNQSGLERCEGEQDKRLHCYASWRNSSGTIELVKKGCWLDDFNCYDRQECVATEENPQVYFCCCEGNFCNERFTHLPEAGGPEVTYEPPPTAPT
# modifications: left off: a dimerising Fc or GST; small tags and cut ends
# notes: heteromeric complex of extracellular domains of human ActRIIB and human ALK4, each separately fused to an Fc domain with a linker
# Tests used:
# BMP10 [1] = target: T1, BMP10; experiment: A-204 reporter gene assay, pGL3(CAGA)12 luciferase; type: cell-based; design: host or cells: exogenous factor added to A-204 cells (human rhabdomyosarcoma); details: Example 13
# Excerpt: (§1) In addition, an A-204 Reporter Gene Assay was used to evaluate the effects of ALK4-Fc:ActRIIB-Fc heterodimer and ActRIIB-Fc:ActRIIB-Fc homodimer on signaling by activin A, activin B, GDF11, GDF8, BMP10, and BMP9. Cell line: Human Rhabdomyosarcoma (derived from muscle). Reporter vector: pGL3(CAGA)12 (as described in Dennler et al, 1998, EMBO 17: 3091-3100). The CAGA12 motif is present in TGFβ responsive genes (PAI-1 gene), so this vector is of general use for factors signaling through Smad2 and 3. An exemplary A-204 Reporter Gene Assay is outlined below. • Day 1: Split A-204 cells into 48-well plate. • Day 2: A-204 cells transfected with 10 ug pGL3(CAGA)12 or pGL3(CAGA)12(10 ug)+pRLCMV (1 ug) and Fugene. • Day 3: Add factors (diluted into medium+0.1% BSA). Inhibitors need to be pre-incubated with Factors for about one hr before adding to cells. About six hrs later, cells are rinsed with PBS and then lysed.
# (§2) Following the above steps, a Luciferase assay was performed.
# activin B [2] = target: T2, activin B; experiment: A-204 reporter gene assay, pGL3(CAGA)12 luciferase; type: cell-based; design: host or cells: exogenous factor added to A-204 cells (human rhabdomyosarcoma); details: Example 13
# Excerpt: as §1, §2
# BMP10 [3] = target: T1, BMP10; experiment: Biacore-based binding assay, receptor captured with anti-Fc antibody
# Method: (§3) A Biacore™-based binding assay was used to compare ligand binding selectivity of the ALK4-Fc:ActRIIB-Fc heterodimeric complex described above with that of ActRIIB-Fc and ALK4-Fc homodimer complexes. The ALK4-Fc:ActRIIB-Fc heterodimer, ActRIIB-Fc homodimer, and ALK4-Fc homodimer were independently captured onto the system using an anti-Fc antibody. Ligands were injected and allowed to flow over the captured receptor protein. Results are summarized in the table below, in which ligand off-rates (kd) most indicative of effective ligand traps are denoted in bold font.
# GDF3 = target: T3, GDF3; experiment: as above
# Method: as §3
# BMP6 = target: T4, BMP6; experiment: as above
# Method: as §3
# BMP9 = target: T5, BMP9; experiment: as above
# Method: as §3
# activin A = target: T6, activin A; experiment: as above
# Method: as §3
# activin B [4] = target: T2, activin B; experiment: as above
# Method: as §3
# GDF8 [5] = target: T7, GDF8; experiment: as above
# Method: as §3
# GDF11 = target: T8, GDF11; experiment: as above
# Method: as §3
# GDF8 [6] = target: T7, GDF8; experiment: A-204 reporter gene assay, pGL3(CAGA)12 luciferase; type: cell-based; design: host or cells: exogenous factor added to A-204 cells (human rhabdomyosarcoma); details: Example 13
# Excerpt: Day 1: Split A-204 cells into 48-well plate. […]
# as §1, §2
molecule,measurement,setting,value
B1,inhibition of BMP10 signaling pathway compared to ActRIIB-Fc:ActRIIB-Fc homodimer,BMP10 [1],significantly reduced
same,inhibition of activin B signaling,activin B [2],potent inhibitors
same,Kd,BMP10 [3],74 pM
same,"ka, BMP10",BMP10 [3],5.6e+07 M⁻¹ s⁻¹
same,"kd, BMP10",BMP10 [3],0.0041 s⁻¹
same,Kd,GDF3,4900 pM
same,"ka, GDF3",GDF3,3.4e+06 M⁻¹ s⁻¹
same,"kd, GDF3",GDF3,0.017 s⁻¹
same,Kd,BMP6,2700 pM
same,"ka, BMP6",BMP6,2e+06 M⁻¹ s⁻¹
same,"kd, BMP6",BMP6,0.0055 s⁻¹
same,Kd,BMP9,3400 pM
same,"ka, BMP9",BMP9,Transient*
same,"kd, BMP9",BMP9,Transient*
same,"ka, Activin A",activin A,1.3e+07 M⁻¹ s⁻¹
same,"kd, Activin A",activin A,0.00015 s⁻¹
same,Kd,activin B [4],6 pM
same,"ka, Activin B",activin B [4],7.1e+06 M⁻¹ s⁻¹
same,"kd, Activin B",activin B [4],4e-05 s⁻¹
same,"ka, GDF8",GDF8 [5],390000 M⁻¹ s⁻¹
same,"kd, GDF8",GDF8 [5],0.00021 s⁻¹
same,Kd,GDF8 [5]; † = very low signal,550 pM
same,"ka, GDF11",GDF11,3.8e+07 M⁻¹ s⁻¹
same,"kd, GDF11",GDF11,0.00011 s⁻¹
same,Kd,GDF11; † = very low signal,3 pM
same,inhibition of GDF8 signaling,GDF8 [6],potent inhibitors
